Measured values taken from patent US20260055200A1, “COMBINATION THERAPIES” (Alligator Bioscience AB, priority 2022, published 2026).

Experiments:
[1] = tested on: human tumours transplanted into NSG mice; bladder cancer cells in hCD40tg mice; details: cited from earlier work
[2] = tested on: CD40-mediated immune cell activation; details: cited from earlier work
[3] = tested on: IFN-γ, MCP-1, B cell margination, B cell activation; test: OPTIMIZE-1 peripheral blood pharmacodynamics (cytokines/chemokines, immunophenotyping); assay type: in vivo, human; details: 450 and 900 μg/kg mitazalimab
Source text: The aim with the pharmacodynamic biomarkers is to characterize changes in intratumoural and systemic immune activation associated with mode of action of mitazalimab and correlate pharmacodynamic effects with clinical response. Disease progression and treatment response will also be followed with liquid biopsies, analysing biomarkers such as Carbohydrate antigen 19-9 (CA19-9) and circulating tumour DNA (ctDNA). All biomarker analyses in blood and tumour biopsies may be exploratory in nature. All exploratory analyses were performed at a fit-for-purpose laboratory, as the data from the analyses are for scientific use and decision making only. […]
Different types of blood samples will be taken and the following pharmacodynamic biomarkers may be evaluated: • Cytokines and chemokines: Serum samples are to be analysed for levels of cytokines and chemokines involved in the immune activation of mitazalimab, including but not limited to IFN-γ, TNF-α, IL12p70, IL-6, MCP-1, IP-10, MIP-1α, MIP-1β and IL-8; e.g., using a 30-plex kit with Luminex, MSD or similar. • Immune phenotyping: Whole blood samples will be used for immunophenotyping of whole blood for quantification of immune cell populations and immune cell activation directly or indirectly involved with immune activation of mitazalimab using flow cytometry. […]

B1: Mitazalimab: agonistic, human monoclonal (IgG1) antibody targeting CD40 (antibody, chains of the INN, looked up, V domains shown)
VH: EVQLLESGGGLVQPGGSLRLSCAASGFTFSTYGMHWVRQAPGKGLEWLSYISGGSSYIFYADSVRGRFTISRDNSENALYLQMNSLRAEDTAVYYCARILRGGSGMDLWGQGTLVTVSS
VL: QSVLTQPPSASGTPGQRVTISCTGSSSNIGAGYNVYWYQQLPGTAPKLLIYGNINRPSGVPDRFSGSKSGTSASLAISGLRSEDEADYYCAAWDKSISGLVFGGGTKLTVL
immunity to tumour re-challenge ([1]; bladder cancer cells in hCD40tg mice): at least 5 months | effect on tumour growth and survival in combination ([1]; combined with checkpoint inhibitors, vaccination or chemotherapy (e.g. mFOLFIRINOX), hCD40tg mice): synergistically enhanced effect | anti-tumour efficacy in vivo ([1]; human tumours in NSG mice and hCD40tg mice): immune-mediated and antibody-dependent cell-mediated cytotoxicity (ADCC)-dependent anti-tumour efficacy | NK cells and T cells in peripheral blood after infusion ([2]; all doses except 75 μg/kg): decreased | B cells in peripheral blood after IV administration ([2]; all doses tested, dose-dependent recovery): margination of B cells was observed | time of peak of peripheral MCP-1, IP-10 and MIP-1B chemokines post-infusion ([2]; in vivo, ip): 1 to 4 h | CD40 receptor occupancy on B cells ([2]; in vivo): dose dependent | IL-6 levels following infusion ([2]; in vivo): not elevated | duration of CD40 engagement post administration ([2]; in vivo): through Day 8 | recovery of NK cell and T cell levels ([2]; in vivo): fully recovered by study Day 8 | cytokines and chemokines (IFN-γ, MCP-1) in peripheral blood [3]: increases in peripheral blood were observed
